Assay [1] concerns the target T1, Enterokinase bovine light chain variant (C112A, L134K, I135K) (Bos taurus, UniProt P98072, C912A/I935K/L934K).
T1 construct: the bovine light chain variant (C112A, L134K, I135K) as described in WO2013/092855A1; made in house
Briefly: EK-kinetics_2: initial rates of Enterokinase hydrolysis of full length GLP-1 with an N-terminal extension (UPLC). Format: biochemical. The settings on record: Z1 = entire [Arg34]GLP-1(9-37), N-terminal extension Z2; slowest D4K site in this set = 100%; initial substrate 1 mg/ml, pH 8.5. The protocol:
Method: EK-kinetics_2 • EK-kinetics_2 was performed by calculating initial rates of hydrolysis of full length GLP-1 with an N-terminal extension. Substrate concentrations were in the range 150-300 μM. The hydrolysis reaction was started by adding an amount of enterokinase giving a final concentration of 9.5 nM. Samples were taken after 6.2 min, 18.7 min, 43.7 min, 86.3 min, 151.3 min, and 243.8 min and quenched by a 1+9 dilution into 5% acetic acid. A suitable method was used on a Waters iClass UPLC to separate and individually quantify remaining substrate and formed product on an analytical reversed-phase column by integrating peak areas. An equation of the following form was fitted to the raw data: […]
wherein t is time, cs0 is initial substrate concentration, cE is enzyme concentration, cPt is product concentration at time t, cSt is substrate concentration at time t, kcat and Km are hydrolysis parameters, and Ki is product inhibition constant. A constant Ki of 0.1 μM was used for all reactions. Initial hydrolysis rates were calculated based on the parameters determined for a initial substrate concentration of 1 mg/ml for all peptides. All reactions were performed in 50 mM Tris buffer, 1 mM EDTA, pH 8.5.
(§1) • The Enterokinase enzymes used for examples herein was the bovine light chain variant (C112A, L134K, I135K) as described in WO2013/092855A1.

For assay [2], the target named is T1, Enterokinase bovine light chain variant (C112A, L134K, I135K). Briefly: EK-kinetics_1: initial rates of Enterokinase hydrolysis of intramolecularly quenched fluorogenic peptides. In kind it is biochemical. The settings on record: Z1 = HAEGT, X6 absent; for Activity (%): relative Enterokinase cleavage rate of reference substrates: reference EK-sites, normalised to substrate with D4K site = 100%. The protocol:
These peptide substrates have the following general structure: Z2*-X6-X5-X4-GDR-Z1* Formula (II) • wherein • X6-X5-X4 have the same meaning as in formula (I) (each being an amino acid, however X6 being optional), • Z2 is Lys(Dnp) and • Z1* is Z1-Lys(Abz)amide, where Z1 is as defined in formula (I). • SPPS_I was performed on a Multipep RSi synthesizer from Intavis Bioanalytical Instruments AG (Koeln, Germany) at 3-μmol scale in parallel using 2.5 fold excess of Fmoc-amino acids (300 mM in NMP with 300 mM Oxyma Pure®) relative to resin loading e.g. Rinkamide-Chematrix (0.5 mmol/g). Fmoc-deprotection was performed using 20% piperidine in NMP. Coupling was performed using 1:1:1:1 amino acid/Oxyma Pure®/DIC/collidine in NMP. All amino acids were “double or triple coupled”, meaning that after the first coupling (60 min), the resin is drained and more reagents are added (amino acid, Oxyma Pure®, DIC, and collidine), and the mixture allowed to react again (60 min).
Method: EK-Kinetics_1 • EK-kinetics_1 was performed by measuring initial rates of hydrolysis of intramolecularly quenched fluorogenic peptides: Lys(Dnp)-peptide-Lys(Abz)amide according to formula (II). After measuring the background fluorescence of peptides, generally at a substrate concentration in the range of 1 to 50 μM, initial rates of hydrolysis was measured by addition of purified enterokinase enzyme at a concentration enabling reading the initial rate of hydrolysis, i.e. less than 5% hydrolysis in 30 min. Typically an enzyme concentration of 1 to 10 nM may be used. After up to one hour of hydrolysis additional enzyme was added to enable measurement of the fluorescence level at total hydrolysis. Hydrolysis rates were generally measured in 50 mM MOPS buffer, 1 mM EDTA, pH 7.5 at 25° C. using a Perkin Elmer Enspire fluorescence plate reader using 320 nm for excitation and 420 nm for emission.
as §1

No end group written: not given here. *: point of attachment. Dnp = O=[N+]([O-])c1ccc(*)c([N+](=O)[O-])c1; 2Abz = Nc1ccccc1C(=O)O

T1 sequence (P98072 801-1035 C912A/L934K/I935K): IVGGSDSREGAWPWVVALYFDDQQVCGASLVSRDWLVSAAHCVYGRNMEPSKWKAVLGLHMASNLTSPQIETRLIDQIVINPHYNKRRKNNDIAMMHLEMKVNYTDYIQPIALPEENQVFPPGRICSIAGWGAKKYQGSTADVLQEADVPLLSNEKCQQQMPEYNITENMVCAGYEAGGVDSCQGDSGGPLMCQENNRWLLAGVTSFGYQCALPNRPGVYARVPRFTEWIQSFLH

For the substance “DVKPGQPLYDEGDR-[Arg34]GLP-1(9-37) (DVKPGQPLYDEGDREGTFTSDVSSYLEGQAAKEFIAWLVRGRG; Enterokinase cleavable polypeptide) [Example 119]”, in assay [1], the “Activity (%): relative Enterokinase cleavage rate” value was found to be 707%.

As for “Lys(Dnp)-AEGDR-HAEGT-Lys(Abz)amide (K(Dnp)AEGDRHAEGTK(2Abz)-NH2; N-terminus assumed; SMILES C[C@H](NC(=O)[C@H](Cc1c[nH]cn1)NC(=O)[C@H](CCCNC(=N)N)NC(=O)[C@H](CC(=O)O)NC(=O)CNC(=O)[C@H](CCC(=O)O)NC(=O)[C@H](C)NC(=O)[C@@H](N)CCCCNc1ccc([N+](=O)[O-])cc1[N+](=O)[O-])C(=O)N[C@@H](CCC(=O)O)C(=O)NCC(=O)N[C@H](C(=O)N[C@@H](CCCCNC(=O)c1ccccc1N)C(N)=O)[C@@H](C)O) [Example 1]”, in assay [2] (initial rate normalised to substrate with D4K site = 100%), the “Activity (%): relative Enterokinase cleavage rate” value came out at 382%.

For “Lys(Dnp)-IMGDRHAEGT-Lys(Abz)amide (K(Dnp)IMGDRHAEGTK(2Abz)-NH2; N-terminus assumed; SMILES CC[C@H](C)[C@H](NC(=O)[C@@H](N)CCCCNc1ccc([N+](=O)[O-])cc1[N+](=O)[O-])C(=O)N[C@@H](CCSC)C(=O)NCC(=O)N[C@@H](CC(=O)O)C(=O)N[C@@H](CCCNC(=N)N)C(=O)N[C@@H](Cc1c[nH]cn1)C(=O)N[C@@H](C)C(=O)N[C@@H](CCC(=O)O)C(=O)NCC(=O)N[C@H](C(=O)N[C@@H](CCCCNC(=O)c1ccccc1N)C(N)=O)[C@@H](C)O) [Example 111]”, in assay [2], the “Activity (%): relative Enterokinase cleavage rate of reference substrates” value worked out at 125%.

For “Lys(Dnp)-INDDRHAEGT-Lys(Abz)amide (K(Dnp)INDDRHAEGTK(2Abz)-NH2; N-terminus assumed; SMILES CC[C@H](C)[C@H](NC(=O)[C@@H](N)CCCCNc1ccc([N+](=O)[O-])cc1[N+](=O)[O-])C(=O)N[C@@H](CC(N)=O)C(=O)N[C@@H](CC(=O)O)C(=O)N[C@@H](CC(=O)O)C(=O)N[C@@H](CCCNC(=N)N)C(=O)N[C@@H](Cc1c[nH]cn1)C(=O)N[C@@H](C)C(=O)N[C@@H](CCC(=O)O)C(=O)NCC(=O)N[C@H](C(=O)N[C@@H](CCCCNC(=O)c1ccccc1N)C(N)=O)[C@@H](C)O) [Example 112]”, the “Activity (%): relative Enterokinase cleavage rate of reference substrates” value in assay [2] came to 126%.

The values above are taken from patent publication US9982287B2, “Enterokinase cleavable polypeptides” (Novo Nordisk A/S, priority 2013, dated 2018).
